Consider two molecules from US20030232325A1 (MOUNT SINAI SCHOOL OF MEDICINE OF NEW YORK UNIVERSITY, published 2003).

Test [1] deals with T1, NS1-BP fragment (amino acids 347 to 619) expressed from the HeLa cDNA library plasmid p59-1 (activation … (human, UniProt Q9Y6Y0 347-611)).
T1 sequence: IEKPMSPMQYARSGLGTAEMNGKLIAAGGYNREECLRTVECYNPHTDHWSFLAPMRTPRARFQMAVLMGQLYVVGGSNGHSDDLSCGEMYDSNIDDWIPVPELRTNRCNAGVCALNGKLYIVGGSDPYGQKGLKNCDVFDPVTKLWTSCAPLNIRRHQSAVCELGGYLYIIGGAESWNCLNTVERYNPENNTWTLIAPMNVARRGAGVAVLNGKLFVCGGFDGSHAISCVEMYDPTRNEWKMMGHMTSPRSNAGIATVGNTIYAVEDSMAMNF
Description: yeast interaction trap, lacZ reporter.

Test [2] deals with T2, NS1I-1 fragment expressed from the HeLa cDNA library plasmid pK5 (activation domain fusion) (human, UniProt P51659 266-736).
T2 sequence: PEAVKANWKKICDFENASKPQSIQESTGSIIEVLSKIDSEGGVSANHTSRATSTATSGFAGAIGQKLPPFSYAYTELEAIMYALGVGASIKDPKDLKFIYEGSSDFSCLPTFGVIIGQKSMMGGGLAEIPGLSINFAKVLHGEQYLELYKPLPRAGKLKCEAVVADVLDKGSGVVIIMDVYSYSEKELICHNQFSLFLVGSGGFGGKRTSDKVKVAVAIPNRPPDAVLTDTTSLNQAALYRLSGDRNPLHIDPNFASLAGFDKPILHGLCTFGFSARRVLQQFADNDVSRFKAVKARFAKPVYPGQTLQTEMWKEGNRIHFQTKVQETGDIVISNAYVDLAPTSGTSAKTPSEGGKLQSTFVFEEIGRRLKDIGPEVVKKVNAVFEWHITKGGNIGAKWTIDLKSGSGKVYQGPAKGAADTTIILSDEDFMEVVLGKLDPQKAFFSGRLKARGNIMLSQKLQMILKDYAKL
Kind of test: yeast interaction trap, lacZ reporter; pRFHM1 as control bait.

Test [3] concerns the target T3, rabies virus M protein (form used not stated; discussion of Example 9, data not shown) (rabies virus, UniProt P16287 1-202).
T3 sequence: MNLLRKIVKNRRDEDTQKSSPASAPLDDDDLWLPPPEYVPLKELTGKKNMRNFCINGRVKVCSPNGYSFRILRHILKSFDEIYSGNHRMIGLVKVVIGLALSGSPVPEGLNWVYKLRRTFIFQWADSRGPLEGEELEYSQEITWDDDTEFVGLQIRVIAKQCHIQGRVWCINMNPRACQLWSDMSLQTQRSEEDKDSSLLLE
Kind of test: far-western blot presumably; data not shown.

B1: LexA-bicoid fusion protein (encoded by pRFHM1) (other)
chain: AQPPPDQNFYHHPLPHTHTHPHPHSHPHPHSHPHPHHQHPQLQLPPQFRNPFDLLFDERTGAINYNYIRPYLPNQMPKPEELPDSLVMRRPRRTRTTFTSSQIAELEQHFLQGRYLTAPRLADLSAKLALGTAQVKIWFKNRRRRHKIQSDQHKDQSYE
notes: also called LexA fused to a transcriptionally inert fragment of the Drosophila melanogaster bicoid protein
B1: the binding result in test [1] and in test [2] was “no binding” in each case. Take TGLPTPWTVRYSKSKKREYFFNPETKHSQWEEPEG (other, domain: WW) [WW domain from ESS 1]: the binding result in test [3] is “no binding”.
